In US20240343803A1 (SHANDONG SIMCERE BIOPHARMACEUTICAL, published 2024):
Several values for one entry are separate records, joined by “and”; a condition that tells them apart may be missing. Equal values may be shown once.

T1: Fusion protein of extracellular domain of human TIGIT and mouse IgG2a Fc fragment (human TIGIT ECD-mFc) (human)
T1 construct: The entry includes the signal peptide (limits not recoverable) and the mouse IgG2a Fc
T1 chain: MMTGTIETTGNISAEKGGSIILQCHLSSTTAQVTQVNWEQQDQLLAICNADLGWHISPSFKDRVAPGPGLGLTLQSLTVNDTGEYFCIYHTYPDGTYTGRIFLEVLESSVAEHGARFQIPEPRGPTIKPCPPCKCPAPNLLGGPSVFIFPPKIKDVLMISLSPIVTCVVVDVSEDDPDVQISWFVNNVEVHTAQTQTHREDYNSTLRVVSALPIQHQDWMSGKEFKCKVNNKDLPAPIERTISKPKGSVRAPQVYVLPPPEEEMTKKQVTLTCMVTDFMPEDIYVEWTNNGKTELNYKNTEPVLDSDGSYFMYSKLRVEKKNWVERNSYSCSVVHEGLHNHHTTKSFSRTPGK

T2: Fusion protein of extracellular domain of human TIGIT and His-tag (human TIGIT ECD-his) (human)
T2 chain: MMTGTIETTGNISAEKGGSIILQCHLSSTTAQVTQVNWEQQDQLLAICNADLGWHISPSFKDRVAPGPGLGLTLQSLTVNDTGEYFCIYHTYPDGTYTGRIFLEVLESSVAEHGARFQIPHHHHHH

T3: Full-length human TIGIT on CHO-K1 cells (CHO-K1 human TIGIT) (human, UniProt Q495A1 22-244)
T3 construct: NCBI XP_024309156.1; the entry includes the signal peptide (limits not recoverable); The strain (high, medium, low) is named under assay; also called high expression strain 1D2; medium expression strain 2D10
T3 sequence: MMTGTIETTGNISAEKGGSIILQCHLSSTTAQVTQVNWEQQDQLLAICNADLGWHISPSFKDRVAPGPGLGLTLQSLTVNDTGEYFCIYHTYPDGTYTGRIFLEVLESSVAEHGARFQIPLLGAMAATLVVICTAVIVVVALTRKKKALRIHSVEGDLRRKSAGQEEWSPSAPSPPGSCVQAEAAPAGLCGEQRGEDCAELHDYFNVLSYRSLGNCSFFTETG

T4: human PVRIG on FlpinCHO-PVRIG cells (human, UniProt Q6DKI7 41-326)
T4 construct: whole, on cells
T4 sequence (looked up): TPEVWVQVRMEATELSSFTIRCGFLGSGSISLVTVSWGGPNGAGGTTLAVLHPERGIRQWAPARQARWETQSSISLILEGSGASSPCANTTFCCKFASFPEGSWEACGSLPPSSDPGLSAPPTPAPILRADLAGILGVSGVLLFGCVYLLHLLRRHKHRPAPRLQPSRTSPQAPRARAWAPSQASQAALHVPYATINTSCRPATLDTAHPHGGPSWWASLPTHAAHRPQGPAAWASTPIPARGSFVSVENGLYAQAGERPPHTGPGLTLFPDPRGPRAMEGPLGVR

T5: cynomolgus monkey PVRIG (Novoprotein, Cat NO. C09B) (cynomolgus monkey, UniProt A0A2K5WVV8 41-171)
T5 construct: Bought reagent; also called cynomolgus monkey PVRIG protein
T5 sequence: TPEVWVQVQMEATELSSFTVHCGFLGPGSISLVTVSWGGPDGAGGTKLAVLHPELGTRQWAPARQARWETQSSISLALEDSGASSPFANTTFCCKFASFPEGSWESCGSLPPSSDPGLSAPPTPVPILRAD

T6: human PVRIG-his (AcroBiosystems, Cat NO. PVG-H52H4) (human, UniProt Q6DKI7 41-171, limits assumed)
T6 construct: Bought reagent; also called human PVRIG protein
T6 sequence (looked up): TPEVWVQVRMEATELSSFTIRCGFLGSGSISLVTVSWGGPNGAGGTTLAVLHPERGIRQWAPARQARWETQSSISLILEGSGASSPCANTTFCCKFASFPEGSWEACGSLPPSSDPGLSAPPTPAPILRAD

T7: cynomolgus monkey PVRIG on FlpinCHO-cyno PVRIG cells (cynomolgus monkey, UniProt A0A2K5WVV8 41-322)
T7 construct: whole, on cells
T7 sequence: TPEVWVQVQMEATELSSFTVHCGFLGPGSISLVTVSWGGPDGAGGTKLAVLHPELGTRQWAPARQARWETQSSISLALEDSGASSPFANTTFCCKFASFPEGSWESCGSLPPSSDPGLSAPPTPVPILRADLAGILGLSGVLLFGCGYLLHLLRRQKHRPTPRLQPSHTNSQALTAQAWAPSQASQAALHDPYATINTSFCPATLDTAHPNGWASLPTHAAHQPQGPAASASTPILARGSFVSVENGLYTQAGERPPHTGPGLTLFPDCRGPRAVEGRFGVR

B1: TIGIT-005-H2L1 (antibody, V domains shown)
VH: EVQLVQSGAEVKKPGASVKVSCKASGYAFTNYLIEWVRQAPGQRLEWMGVINPGSGGTNYKEKFKGRVTITADKSSSTAYMELSSLRSEDTAVYYCARGEYFFFDYWGQGTTVTVSS
VL: DIVMTQSPDSLAVSLGERATINCKASQHVSNGVAWYQHKPGQSPKLLIYSASYRYTGVPDRFSGSGSGTDFTLTISSLQAEDVAVYYCQQHYNTPHTFGGGTKVEIK
notes: Humanized anti-TIGIT antibody
B2: PVRIG-A11 (Fc fusion)
chain: QLQLVESGGGLVQPGGSLRLSCAASGFTDDYYAIGWFRQAPGKEREGVSCISGSGGSTNYEDSVKGRFAISRDNAKNMVYLQMNDLKPEDTAVYYCAADPFWSAPCTGHNDRYFDVWGQGTLVTVSS
notes: Alpaca VHH joined to human IgG1 Fc (VHH-hinge-CH2-CH3); not shown: human IgG1 hinge-CH2-CH3

Experiments:
[1] = molecular target: T8, Full-length cynomolgus monkey TIGIT on CHO-K1 cells (CHO-K1 cynomolgus monkey TIGIT) (cynomolgus monkey); test: cell binding, CHO-K1 cynomolgus monkey TIGIT
T8 construct: NCBI XP_015300911.1
In short: (§1)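 Binding was measured by flow cytometry after a 60-minute, 4° C incubation of the antibodies with 2×10⁵ CHO-K1 cells displaying full-length human or cynomolgus monkey TIGIT. Antibody titration: 12 points, threefold serial dilution from 80 nM, in 1% BSA-PBS.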

[2] = molecular target: T1, Fusion protein of extracellular domain …; test: ELISA, human TIGIT ECD-mFc
In short: (§2)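 Plates blocked with 5% skim milk-PBS at 37° C for 2-4 h. Test antibodies applied as a 12-point 3-fold series from 13 nM for 1.5-2 h at 37° C. Read-out: HRP secondary (1:5000, 1 h, 37° C), TMB colour for 7-10 min at room temperature, acid stop, absorbance at OD450 nm.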

[3] = molecular target: T2, Fusion protein of extracellular domain …; test: BIAcore; KD ratio to TIGIT-CHI-005
[4] = molecular target: T9, Fusion protein of extracellular domain of human TIGIT and human IgG1 Fc fragment (human TIGIT ECD-hFc) (human); test: blocking of TIGIT ECD-hFc binding to CHO-K1 CD155 cells
T9 construct: The entry includes the signal peptide (limits not recoverable) and the human IgG1 Fc
In short: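 The inhibition curves from which IC50 was calculated were generated by cell-based ELISA. Fixed CHO-K1 CD155 cells, blocked with 5% skim milk-PBS, were incubated at 37° C for 1.5-2 h with antibodies that had been premixed for 0.5 h with human TIGIT ECD-hFc at a working concentration of 30 ng/mL. Detection of bound TIGIT used HRP secondary antibody at 1:5000 for 1 h at 37° C, followed by TMB and reading as OD450 nm.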

[5] = molecular target: T2, Fusion protein of extracellular domain …; test: BIAcore
[6] = molecular target: T3, Full-length human TIGIT on CHO-K1 cells …; test: cell binding, CHO-K1 human TIGIT high expression strain
In short: as §1

[7] = molecular target: T2, Fusion protein of extracellular domain …; test: BIAcore (second series)
[8] = molecular target: T2, Fusion protein of extracellular domain …; test: BIAcore (second series); serves as reference of r34-r37
[9] = molecular target: T10, Fusion protein of extracellular domain of cynomolgus monkey TIGIT and mouse IgG2a Fc fragment (cynomolgus … (cynomolgus monkey)); test: ELISA, cynomolgus monkey TIGIT ECD-mFc
T10 construct: The entry includes the signal peptide (limits not recoverable) and the mouse IgG2a Fc
In short: as §2

[10] = molecular target: T4, human PVRIG on FlpinCHO-PVRIG cells; test: FACS, FlpinCHO-PVRIG cells; AUC of MFI curve relative to SRF813-hIgG1
[11] = molecular target: T4, human PVRIG on FlpinCHO-PVRIG cells; test: FACS, FlpinCHO-PVRIG cells; AUC of MFI curve relative to COM701-hIgG1
[12] = molecular target: T5, cynomolgus monkey PVRIG (Novoprotein, …); test: ELISA, coated cynomolgus monkey PVRIG
[13] = molecular target: T6, human PVRIG-his (AcroBiosystems, Cat …); test: ELISA, coated human PVRIG-his; binding ELISA, Table 23
Method: The ELISA plate was pre-coated with 100 μL/well of 0.5 μg/mL human PVRIG-his (AcroBiosystems, Cat NO. PVG-H52H4) or cynomolgus monkey PVRIG (Novoprotein, Cat NO. C09B). […] A HRP substrate, TMB (Thermo, Cat NO. 34029) was added into wells after washing the plate again for color development. After adding a termination solution to terminate the reaction, the absorbance value was read by a microplate reader (MD i3×). An antibody binding curve was drawn with concentration of antibodies as the abscissa and the corresponding OD value as the ordinate. The EC50 value was calculated by using a Four Parameter Logistic Fit (GraphPadPrism9). The smaller the EC50 value, the stronger the ability of the antibodies binds to human or cynomolgus monkey PVRIG. The positive control antibodies are COM701-hIgG1 (Patent No.:US20180244774A1), COM701-hIgG4 (patent No.: US20180244774A1) and SRF813-hIgG1 (Patent No.:US20200040081A1); and the negative control antibodies are anti-HA HcAb-hIgG1 (Chengdu NB Biolab, Cat NO. NBR022), anti-CD38 HcAb-hIgG1 (in-house) and anti-Fluorescein-hIgG1 (in house).

[14] = molecular target: T7, cynomolgus monkey PVRIG on …; test: FACS, FlpinCHO-cyno PVRIG cells; AUC of MFI curve relative to SRF813-hIgG1
[15] = molecular target: T7, cynomolgus monkey PVRIG on …; test: FACS, FlpinCHO-cyno PVRIG cells; AUC of MFI curve relative to COM701-hIgG1

T8 sequence (chain, as listed by the source limits assumed): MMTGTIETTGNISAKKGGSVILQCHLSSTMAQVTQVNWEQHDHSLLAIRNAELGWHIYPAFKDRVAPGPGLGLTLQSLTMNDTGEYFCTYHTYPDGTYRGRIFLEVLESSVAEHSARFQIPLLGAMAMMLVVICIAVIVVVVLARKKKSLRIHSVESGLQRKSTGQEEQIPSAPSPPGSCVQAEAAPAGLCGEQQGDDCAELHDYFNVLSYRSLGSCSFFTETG

Binder | EC50 [1] | EC50 [2] | Fold change vs chimeric antibodies (KD) [3] | IC50 [4] | Kd [5] | koff [5] | kon [5] | EC50 [6] | Kd [7] | koff [7] | kon [7] | Fold change vs chimeric antibodies (KD) [8] | EC50 [9] | % AUC to SRF813-hIgG1 [10] | % AUC to COM701-hIgG1 [11] | EC50 [12] | EC50 [13] | % AUC to SRF813-hIgG1 [14] | % AUC to COM701-hIgG1 [15]
B1 | 0.0199 nM and 0.047 nM | 0.0141 nM and 0.0247 nM | 1.37 fold | 0.321 nM and 0.389 nM | 0.0378 nM | 0.000161 s⁻¹ | 4.26e+06 M⁻¹ s⁻¹ | 0.0281 nM and 0.0272 nM | 0.0742 nM | 0.000263 s⁻¹ | 3.54e+06 M⁻¹ s⁻¹ | 1 fold | 0.0145 nM and 0.0393 nM |  |  |  |  |  | 
B2 |  |  |  |  |  |  |  |  |  |  |  |  |  | 143% | 117% | 0.0289 nM | 0.121 nM | 48.6% | 41.3%
